6 substances from paper PMC6737238 can be followed below.

Experiment in all cases: EMSA
What all share (settings): EMSA: 0.4 nM biotinylated probe, 10 mM Tris-HCl pH 7.5, 1 mM DTT, 10 mM MgCl2, 400 mM KCl, 0.05% NP-40, 70C 10 min; 5% PAGE, 0.5x TBE
For orientation: Mobility shift assays separate free from complexed probe on a gel.

In data set [1] the target is T1, Tar (TK0271 protein) (Thermococcus kodakarensis KOD1) (UniProt Q5JFW7).
T1 sequence: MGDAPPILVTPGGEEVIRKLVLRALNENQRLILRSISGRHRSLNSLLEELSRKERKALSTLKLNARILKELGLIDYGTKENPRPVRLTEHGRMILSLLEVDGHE

Data set [2] deals with T2, TkTrpY (TK1227 protein) (Thermococcus kodakarensis KOD1) (UniProt Q5JGI5).
T2 sequence: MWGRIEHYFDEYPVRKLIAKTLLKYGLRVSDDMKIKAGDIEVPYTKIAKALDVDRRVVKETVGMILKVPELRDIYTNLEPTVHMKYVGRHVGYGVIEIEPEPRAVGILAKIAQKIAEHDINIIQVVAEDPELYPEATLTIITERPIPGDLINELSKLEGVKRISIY

Data set [3] has as its target T3, TK0063 protein (Thermococcus kodakarensis KOD1) (UniProt Q5JEG2).
T3 sequence: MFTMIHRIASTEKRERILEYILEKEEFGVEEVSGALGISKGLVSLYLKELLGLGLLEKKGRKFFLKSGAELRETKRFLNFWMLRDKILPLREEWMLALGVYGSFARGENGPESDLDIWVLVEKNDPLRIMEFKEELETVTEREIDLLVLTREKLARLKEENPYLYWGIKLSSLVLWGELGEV

Data set [4] deals with T4, TK0142 protein (Thermococcus kodakarensis KOD1) (UniProt Q5JFH4).
T4 sequence: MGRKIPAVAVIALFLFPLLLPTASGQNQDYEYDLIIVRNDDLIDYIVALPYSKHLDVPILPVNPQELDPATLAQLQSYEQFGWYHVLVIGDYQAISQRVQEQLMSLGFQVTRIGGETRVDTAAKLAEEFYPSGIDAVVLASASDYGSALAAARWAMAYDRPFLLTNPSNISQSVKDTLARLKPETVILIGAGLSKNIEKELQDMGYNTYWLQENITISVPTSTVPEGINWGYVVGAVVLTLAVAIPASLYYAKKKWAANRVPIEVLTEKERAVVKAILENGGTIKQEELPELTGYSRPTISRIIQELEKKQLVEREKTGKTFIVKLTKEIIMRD

The target in data set [5] is T5, TK0169 protein (Thermococcus kodakarensis KOD1) (UniProt Q5JFL2).
T5 sequence: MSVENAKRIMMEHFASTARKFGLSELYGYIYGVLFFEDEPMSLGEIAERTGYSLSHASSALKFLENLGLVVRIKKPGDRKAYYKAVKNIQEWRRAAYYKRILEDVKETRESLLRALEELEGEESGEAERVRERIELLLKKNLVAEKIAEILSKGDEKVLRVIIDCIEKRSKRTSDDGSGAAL

Data set [6] deals with T6, TK0271 protein (IVT) (Thermococcus kodakarensis KOD1) (UniProt Q5JFW7).
T6 sequence: T1 sequence

Data set [7] has as its target T7, TK0888 protein (Thermococcus kodakarensis KOD1) (UniProt Q5JI32).
T7 sequence: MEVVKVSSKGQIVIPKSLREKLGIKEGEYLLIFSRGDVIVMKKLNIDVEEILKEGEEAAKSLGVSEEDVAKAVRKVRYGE

Data set [8] deals with T8, TK1210 protein (Thermococcus kodakarensis KOD1) (UniProt Q5JGG7).
T8 sequence: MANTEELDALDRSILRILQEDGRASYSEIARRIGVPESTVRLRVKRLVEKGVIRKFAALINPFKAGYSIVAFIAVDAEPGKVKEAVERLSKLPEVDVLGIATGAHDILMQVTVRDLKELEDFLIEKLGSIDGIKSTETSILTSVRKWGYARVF

Data set [9] addresses T9, TK1227 protein (IVT) (Thermococcus kodakarensis KOD1) (UniProt Q5JGI5).
T9 sequence: T2 sequence

Data set [10] addresses T10, TK1272 protein (Thermococcus kodakarensis KOD1) (UniProt Q5JGN9).
T10 sequence: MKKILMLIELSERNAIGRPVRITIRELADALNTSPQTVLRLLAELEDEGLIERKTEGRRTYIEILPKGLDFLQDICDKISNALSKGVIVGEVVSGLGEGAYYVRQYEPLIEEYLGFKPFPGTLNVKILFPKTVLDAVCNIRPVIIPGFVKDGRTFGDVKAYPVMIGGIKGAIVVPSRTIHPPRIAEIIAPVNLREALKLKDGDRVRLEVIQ

Data set [11] concerns the target T11, TK1339 protein (Thermococcus kodakarensis KOD1) (UniProt Q5JGU9).
T11 sequence: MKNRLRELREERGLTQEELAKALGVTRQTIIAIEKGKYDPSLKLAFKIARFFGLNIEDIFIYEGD

Data set [12] concerns the target T12, TK1489 protein (Thermococcus kodakarensis KOD1) (UniProt Q5JJD9).
T12 sequence: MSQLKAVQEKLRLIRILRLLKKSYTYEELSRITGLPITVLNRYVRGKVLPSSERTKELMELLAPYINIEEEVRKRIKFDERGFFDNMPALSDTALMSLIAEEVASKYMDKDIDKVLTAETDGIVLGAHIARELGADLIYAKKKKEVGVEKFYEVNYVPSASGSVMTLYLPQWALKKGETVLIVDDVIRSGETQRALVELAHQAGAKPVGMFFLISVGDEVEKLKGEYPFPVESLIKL

Data set [13] concerns the target T13, TK1881 protein (Thermococcus kodakarensis KOD1) (UniProt Q5JEN6).
T13 sequence: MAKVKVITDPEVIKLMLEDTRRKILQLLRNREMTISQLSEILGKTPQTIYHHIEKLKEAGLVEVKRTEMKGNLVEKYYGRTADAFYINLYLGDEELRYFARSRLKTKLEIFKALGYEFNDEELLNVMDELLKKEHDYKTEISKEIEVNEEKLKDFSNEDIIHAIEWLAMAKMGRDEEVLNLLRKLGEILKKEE

Data set [14] concerns the target T14, TK1955 protein (Thermococcus kodakarensis KOD1) (UniProt Q5JDN7).
T14 sequence: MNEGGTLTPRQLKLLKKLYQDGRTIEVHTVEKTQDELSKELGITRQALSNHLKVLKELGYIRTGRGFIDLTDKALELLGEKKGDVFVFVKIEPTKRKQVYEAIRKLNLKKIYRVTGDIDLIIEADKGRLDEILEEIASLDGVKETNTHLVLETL

Data set [15] addresses T15, TK2190 protein (Thermococcus kodakarensis KOD1) (UniProt Q5JHK1).
T15 sequence: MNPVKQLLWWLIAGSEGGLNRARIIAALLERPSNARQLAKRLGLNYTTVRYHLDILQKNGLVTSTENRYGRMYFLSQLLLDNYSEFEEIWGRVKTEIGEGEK

The target of data set [16] is T16, TK2229 protein (Thermococcus kodakarensis KOD1) (UniProt Q5JHP9).
T16 sequence: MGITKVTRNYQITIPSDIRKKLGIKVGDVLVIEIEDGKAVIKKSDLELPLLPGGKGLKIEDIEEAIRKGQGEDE

As to “GGACGCCTGTTTGTCAAATCGACAAAAATACGCCAGTTTTCACACTGATTTTTAACAGATTGATGAGATGGACGTCCTTTTTTGGGAATTGGACAGGCAAACCTGGCGAATAGTTTAAATAGGGTTGCTGATTCATCCGTCTCCGGTGATCGGTGATGTCCCGCCAATTTATGAAGTCTTCAAACCAGGTGATGTCCCGCCAATGGGTGATGC (double strand) [aro promoter (TK0271)]”, in [1], the Kd entry is “binds”.
Regarding “TGCGGGCCATCATCATCACCCAATACCTTTGATGTGGGTAAAACATGGGGAGGTTATATACTTTATGTCCCTCAGGGACTTGGCAATGAAACTTTTAAGAATTTCGTCCGATTCTAGAATCAAACTGTAAAAGACCCATATTTTACAATAGCAGCCAGGAAAGAATATTAAACAGAAAATAAGGGATTAAATGCCGTTATCCCCA (double strand) [TK1899 (radA) promoter]”, the binding result in data set [1] is “binds more weakly”.
On to “GCTACTTCCATCCTCCTCTGGAGAAGCTGGAGAATTTCCCGGTCAATCTCGTCTATCCTTCTCCTCAGAATGGCAAGTTCTACAAGATCAGGACTCGATATTGGCGGGACATCACCGTCACCGTTTTGAGCTTGAAGTTCGAAGATTTAACCTTTTGGACAGGTTCACCTAACCATCCCCTCCCAGGCCCTCCTCCTCAGGAG (double strand) [tyr-phe promoter (TK0261)]”, for which the Kd entry in data set [1] is reported as “binds”.
As for “GACCACCCGCTCAGAAAAGGACGTCGTAAGGACAAGTACACCGTTATTCTCTACCAGGCAACCGTACGAACTATTCAAAGTTCACCCTTTGAAGAAAGGCAAACATTTTTGTTTAACAAAAACACTTTTGTTAGCGCAAACTATTTAAACAACCGTTGTATATCACAGATGGTGATATATATGGTTGAGC (double strand) [TK0705 (GAPN) promoter]”, the binding entry in data set [2] is recorded as “binds more weakly”.
As for “GACTTCGGCTTTCTGATGGTCGGAAGGGACGTGGAAAATGCGAACGAAGCGATAAAAATGTTTTTGGAGGAGGTTAAACGAGGGCCTTAACGCCCTCTCGGTCTTTTTAGCTACTCCCTTGGACACCTCAGCATGTCCAAAGCCTTATATCCCAACTCCCCCTTTTGACACCGGTGAGTTCAAATGGGTGATGGTTTTTGGATTAAGC (double strand) [trp promoter (TK0252)]”, the binding result in [3], in data set [4], in data set [5], in data set [6], in data set [7] and in data set [8] was “binds” throughout. Also, the binding entry in data set [9], in data set [10], in data set [11], in data set [12], in data set [13] and in [14] was “binds” each time. Moreover, the binding result in [15], in [16] and in data set [1] was “binds” in each case. In data set [1], the equilibrium dissociation constant (Kd) was 5 nM.
The substance trp promoter (TK0252) returned a Kd in data set [1] of 5 nM.

By Kd is commonly meant the free concentration of one partner at which half of the binding sites on the other are occupied at equilibrium, for simple one-to-one binding. Read a high Kd as a looser complex.
